According to publication PMC8882475:

Experiments:
Experiment in all cases: BLI
[1] = target: SI–F019, huACE2 (18–615) - IgG1 Fc null (human) (UniProt Q9BYF1)
Bamlanivimab = target: Bamlanivimab
[2] = target: biotinylated SARS-CoV-2 S protein RBD, Beta variant (K417N, E484K, N501Y) (SARS-CoV-2) (UniProt P0DTC2)
[3] = target: SARS-CoV-2 S1 protein (SARS-CoV-2)
[4] = target: SARS-CoV-2 RBD, Alpha (N501Y) (SARS-CoV-2) (UniProt P0DTC2)
[5] = target: SARS-CoV-2 RBD, Lambda (L452Q, F490S) (SARS-CoV-2) (UniProt P0DTC2)
[6] = target: SARS-CoV-2 RBD, Beta (K417N, E484K, N501Y) (SARS-CoV-2) (UniProt P0DTC2)
[7] = target: SARS-CoV-2 RBD (original, WT) (SARS-CoV-2) (UniProt P0DTC2)
[8] = target: SARS-CoV-2 RBD, Kappa (L452R, E484Q) (SARS-CoV-2) (UniProt P0DTC2)
[9] = target: SARS-CoV-2 spike trimer, full-length extracellular domain (ECD), His tagged (SARS-CoV-2) (UniProt P0DTC2)
[10] = target: SARS-CoV-2 RBD, Gamma (K417T, E484K, N501Y) (SARS-CoV-2) (UniProt P0DTC2)
[11] = target: SARS-CoV-2 RBD, Delta (L452R, T478K) (SARS-CoV-2) (UniProt P0DTC2)

In the case of “SARS-CoV-2 RBD, Lambda (L452Q, F490S) (from UniProt P0DTC2) (domain or fragment)”, the Kd [1] is reported as 13.5 nM.
With “SARS-CoV-2 S protein RBD, Delta variant (L452R, T478K) (from UniProt P0DTC2) (domain or fragment)” the Kd (Bamlanivimab) was 3.61 nM.
Imdevimab (antibody) showed a Kd [2] of under 0.001 nM.
Substance Tixagevimab (antibody) has a Kd [2] of under 0.001 nM.
Work on “SI–F019, huACE2 (18–615) - IgG1 Fc null (from UniProt Q9BYF1-1 18-615) (Fc fusion)” yielded a Kd [3] of 0.29 nM, a Kd [4] of 0.019 nM and a Kd [5] of 0.0892 nM. The Kd [6] was 0.0635 nM, the Kd [7] was 0.114 nM and the Kd [8] was under 0.001 nM. The Kd [9] was 0.18 nM, the Kd [10] was 0.0623 nM and the Kd [11] was 0.0141 nM.
“SARS-CoV-2 RBD, Delta (L452R, T478K) (from UniProt P0DTC2) (domain or fragment)” gave a Kd [1] of 7.26 nM.
Work on “SARS-CoV-2 S1 protein (domain or fragment)” yielded a Kd [1] of 14.7 nM, a koff [1] of 0.00493 s⁻¹ and a kon [1] of 337000 M⁻¹ s⁻¹.
